Source: US8697369B2, “Method for screening a test substance for activating a receptor associated with FGF 21 activity” (National Institute of Advanced Industrial Science and …, priority 2007, dated 2014)

How the values were obtained:
[1] = test system: undifferentiated 3T3-L1 fibroblasts; test: GLUT1 mRNA expression in undifferentiated 3T3-L1 fibroblasts; format: cell-based; conditions: various concentrations, 6 hours
Experimental: It has been reported that FGF21 allows adipocytes to increasingly express glucose transporter 1 (GLUT1). In the present example, as cultured adipocytes, there were used 3T3-L1 cells that are fibroblasts having the ability to differentiate into adipocytes by controlling culture conditions. The cells were cultured in a culture solution of a Dulbecco's modified Eagle medium (DMEM) containing 10% fetal bovine serum (FBS), so as to prepare cells maintaining an undifferentiated property as fibroblasts. The prepared cells were cultured in a test system, and they were allowed to grow to a confluent state. The cells were then left for 2 days. Thereafter, the culture solution was exchanged with DMEM as a culture solution used for differentiation induction, which comprised 10% FBS, 0.25 μM dexamethasone, 0.5 mM methyl isobutyl xanthine, and 5 μg/ml insulin. The cells were cultured for 2 days. […] The term “cells having the properties of adipocytes” is used herein to mean cells, which conduct intracellular metabolism specific to adipocytes and have cytoplasm in which large quantities of fat droplets are accumulated.
FGF21 were added in various types of concentrations to such different types of culture solutions, and the cells were further culture for 6 hours. Thereafter, RNA was extracted, and the copy number of GLUT1 was counted.

[2] = target: T1, FGFR1c-expressing BaF3 cells (Mus musculus, UniProt P16092); test: DNA synthesis (thymidine incorporation) in BaF3 cells expressing only FGFR1c; format: cell-based; conditions: BaF3 cells expressing FGFR1c but not betaKlotho
T1 construct: the entire-length cDNA of mouse FGFR1c had been cloned; expressed in transfected cells; host or cells: BaF3 (mouse pro-B) cells
Experimental: A commonly used measurement method is a cell growth stimulating activity measurement method described in Ornitz, D. M., Xu, J., Colvin, J. S., McEwen, D. G., MacArthur, C. A., Coulier, F., Gao, G. and Goldfarb, M. (1996) Receptor specificity of the fibroblast growth factor family. J Biol Chem, 271, 15292-15297. The summary thereof is as follows. FGF used as a measurement target is added to a culture solution containing a cultured cell having an FGF receptor on the surface thereof, and the obtained mixture is cultured for a certain period of time. Thereafter, a labeled thymidine is added to the culture solution, followed by further culture for a certain period of time. By measuring the amount of the labeled thymidine incorporated into polymeric DNA during the culture, the degree of FGF to activate DNA synthesis is evaluated. (In the present invention as well, this method was adopted when the activity of FGF21 was measured in Examples 4, 5, 6, 8, 9, and 10.) […]
Immediately after inoculation, BaF3 cells that had expressed each clone and only FGFR1c were stimulated by addition of FGF21 (open bar) or PBS (filled bar) used as a control in the presence of heparin, and they were then cultured for 42 hours. […] Thereafter, the amount of thymidine incorporated into the cells was measured, so as to evaluate DNA synthesis. […]

T1 sequence (P16092 22-822): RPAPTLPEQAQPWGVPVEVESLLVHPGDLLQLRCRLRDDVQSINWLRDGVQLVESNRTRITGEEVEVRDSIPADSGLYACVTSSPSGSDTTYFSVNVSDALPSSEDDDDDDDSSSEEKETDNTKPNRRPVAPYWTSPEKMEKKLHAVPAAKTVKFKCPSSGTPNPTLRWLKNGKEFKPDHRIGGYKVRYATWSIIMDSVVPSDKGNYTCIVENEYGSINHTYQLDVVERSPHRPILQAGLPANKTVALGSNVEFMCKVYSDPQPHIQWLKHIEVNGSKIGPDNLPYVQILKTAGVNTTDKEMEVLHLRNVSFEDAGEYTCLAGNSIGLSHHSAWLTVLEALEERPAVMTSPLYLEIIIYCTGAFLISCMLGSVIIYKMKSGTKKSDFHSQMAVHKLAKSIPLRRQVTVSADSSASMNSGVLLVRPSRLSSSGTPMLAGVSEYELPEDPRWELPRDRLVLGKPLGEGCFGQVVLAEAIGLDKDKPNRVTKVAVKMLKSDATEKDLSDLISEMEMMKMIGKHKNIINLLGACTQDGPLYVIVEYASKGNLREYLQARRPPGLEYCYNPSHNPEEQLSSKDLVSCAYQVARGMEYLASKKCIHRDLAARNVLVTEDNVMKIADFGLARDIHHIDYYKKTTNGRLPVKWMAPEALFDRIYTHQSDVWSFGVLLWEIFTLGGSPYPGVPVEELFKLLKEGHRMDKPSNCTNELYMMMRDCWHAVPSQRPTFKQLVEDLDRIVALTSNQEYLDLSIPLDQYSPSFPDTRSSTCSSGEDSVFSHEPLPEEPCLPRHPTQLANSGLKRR

DNA synthesis (thymidine incorporated into the cells) [2]: did not react with FGF21
B1: FGF21: fibroblast growth factor 21; mouse-derived protein used in Examples 1-7 and 10-13 (protein)
chain: AYPIPDSSPLLQFGGQVRQRYLYTDDDQDTEAHLEIREDGTVVGAAHRSPESLLELKALKPGVIQILGVKASRFLCQQPDGALYGSPHFDPEACSFRELLLEDGYNVYQSEAHGLPLRLPQKDSPNQDATSWGPVRFLPMPGLLHEPQDQAGFLPPEPPDVGSSDPLSMVEPLQGRSPSYAS
expression level of GLUT1 mRNA [1]: hardly changed
